How the values were obtained:
[1] = tested on: gastritis/gastric ulcer model; experiment: HCl/ethanol gastritis/gastric ulcer model; type: in vivo, C57BL/6J mice; details: vs PBS buffer group
Description: For a gastritis/gastric ulcer model, 7-week-old male C57BL/6J mice were used, and from 3 days before induction, the peptides of the present invention were dissolved in PBS buffer and then orally administered to the mice by 150 μL per animal at the same time once a day. Amuc_1409 or PEP001, PEP002, PEP003, PEP004, or PEP005 was dissolved in PBS buffer at a concentration of 6.7 μM, and novel tetrapeptides PEP006, PEP007, PEP008, PEP009, and PEP010 and novel tripeptides PEP011, PEP012, and PEP013 were each dissolved in PBS buffer at a concentration of 0.15 μg/150 μL (PEP006) or 0.2 μg/150 μL (PEP007, PEP008, PEP009, PEP010, PEP011, PEP012, and PEP013). For the induction of acute gastritis/gastric ulcer, 0.3 M HCl/60% ethanol was orally administered to the mice by 0.2 mL for each, the tissue was harvested after 1 hour, photographs of the inner surface of the stomach were taken, and the degree of damage to the stomach was compared. Measurements of gastritis/gastric ulcer indexes were converted into scores according to the degree of mucosal damage. A score of 0 was given if there was no damage, a score of 1 was given to an insignificant circle-shaped hemorrhagic corrosion site of less than 5 mm, a score of 2 was given to a hemorrhagic corrosion site with a length more than 5 mm, and a score of 3 was given to one or more hemorrhagic corrosion sites corresponding to the score of 2, a score of 4 was given to a hemorrhagic corrosion of more than 5 mm in length and less than 2 mm in width, a score of 5 was given to 2 to 3 hemorrhagic corrosions corresponding to the score of 4, a score of 6 was given to 4 to 5 hemorrhagic corrosions corresponding to the score of 4, a score of 7 was given to 6 or more hemorrhagic corrosions corresponding to the score of 4, and a score of 8 was given if there was hemorrhagic corrosion throughout the gastric mucosa. In order to confirm additional anti-inflammatory activity of the administered peptides, mRNA expression of inflammation-related genes, Tnfα, Il-1β, iNos, Cox2, and Il-10, in the gastric mucosal tissue was examined.

[2] = tested on: animal model of metabolic disease accompanied by obesity/diabetes and chronic inflammation; experiment: High-fat diet obesity/diabetic metabolic disease model; type: in vivo, C57BL/6J mice
Description: An animal model of metabolic disease accompanied by obesity/diabetes and chronic inflammation was induced by feeding a high-fat diet.
The experiment in the groups administered with Amuc_1409 or PEP001 to PEP005 was performed using 8-week-old SPF male C57BL/6J mice, and the metabolic disease accompanied by obesity/diabetes and chronic inflammation was induced by ad libitum feeding of a high-fat diet for 45 weeks or 8 weeks. Specifically, mice fed a high-fat diet for 45 weeks were fed a high-fat diet for an additional 3 weeks, and Amuc_1409 was dissolved in PBS buffer at a concentration of 2.4 μM and then orally administered to the mice by 150 μL per animal at the same time once a day until the end of the experiment, or mice fed a high-fat diet for 8 weeks were fed a high-fat diet for an additional 3 weeks, and PEP001, PEP002, PEP003, PEP004, or PEP005 was dissolved in PBS buffer at a concentration of 2.4 μM and then orally administered to the mice by 150 μL per animal at the same time once a day until the end of the experiment. To the control group, PBS buffer was orally administered in the same manner.
For the experiment in the groups administered with PEP006 to PEP013, 8-week-old male C57BL/6J mice were used, and the metabolic disease accompanied by obesity/diabetes and chronic inflammation was induced by ad libitum feeding of a high-fat diet for 32, 50, or 53 weeks. Mice fed a high-fat diet for 32 weeks were fed a high-fat diet for an additional 3 weeks, and a novel tetrapeptide PEP006 was dissolved in PBS buffer at a concentration of 0.15 μg/150 μL (PEP006) and then orally administered to the mice by 150 μL per animal at the same time until the end of the test, mice fed a high-fat diet for 50 weeks were fed a high-fat diet for an additional 3 weeks, and a novel tetrapeptide PEP007, PEP008, PEP009, or PEP010 was dissolved in PBS buffer at a concentration of 0.2 μg/150 μL (PEP007 to PEP013) and then orally administered to the mice by 150 μL per animal at the same time until the end of the test, and mice fed a high-fat diet for 53 weeks were fed a high-fat diet for an additional 3 weeks, and a novel […] PEP011, PEP012, or PEP013 was dissolved in PBS buffer at a concentration of 0.2 μg/150 μL (PEP007 to PEP013) and then orally administered to the mice by 150 μL per animal at the same time until the end of the test. To the control group, PBS buffer was orally administered in the same manner.
For all animals, general symptoms were observed immediately before administration at the start of administration, and the body weight was measured until the end of the test after group separation.
Insulin (Humalog, 1 unit/kg) was intraperitoneally injected into mice fasted for 4 hours at 2 weeks after the start of test substance administration (2 weeks in groups administered with Amuc_1409 and PEP001 to PEP005 and 3 weeks in groups administered with PEP006 to PEP013), and then blood glucose at 30 minutes, 60 minutes, 90 minutes, and 120 minutes was measured from a small amount of blood obtained through a wound at the tip of the tail using ACCU-CHECK (Roche), thereby performing an insulin tolerance test (ITT).
At the end of the test, fasting blood glucose was measured from a small amount of blood obtained through a wound at the tip of the tail of the mouse fasted for 16 hours using ACCU-CHECK, and blood was collected from the orbital venous plexus using a heparin-treated capillary tube. The collected blood was immediately centrifuged at 10,000 rpm (4° C.) for 10 minutes to separate plasma, and then subjected to analysis of total cholesterol (TC) and low-density lipoprotein cholesterol (LDL-C), which are blood abnormal lipid indicators, using an automated blood biochemical analyzer.

B1: Amuc_1409: SEQ ID NO: 15, functional fragment obtained by eliminating the leader sequence from SEQ ID NO: 14; protein derived from Akkermansia muciniphila (protein)
chain: IPESSVPAAAVSSIKGAYPNAGPIEWDSEMHGMERIYEAEFRINGFQFDVKIAPDGKIVRIKEEIAASSLPEAVRASVLKRYPGCRIKEAEKITEGELVRYKVEVADSRDDYDVLIAPDGNILHVDR
modifications: Amuc_1409_fragment
notes: protein derived from Akkermansia muciniphila
[1]; RT-qPCR
  Il-10 mRNA expression in gastric mucosal tissue: increased
  Tnfα mRNA expression in gastric mucosal tissue: significantly decreased
  iNos mRNA expression in gastric mucosal tissue: significantly decreased
[1]; oral, 1 hour after HCl/ethanol
  degree of gastric mucosal damage (score): significantly decreased
[2]; after fasting for 16 hours at the end of the test
  fasting blood glucose: significantly decreased
[2]; after insulin administration, time as stated in the value, vs PBS buffer group
  blood glucose in insulin resistance experiment (ITT): decreased from 30 minutes to 120 minutes after insulin administration
[2]; oral, 3 weeks on high-fat diet, vs PBS buffer group
  body weight: decreased from the initial body weight
[2]; until 120 minutes after insulin
  maintenance of the decreased blood glucose in insulin resistance experiment: significantly maintained until 120 minutes
[2]; vs PBS buffer group
  AUC value of the insulin resistance experiment: decreased close to a significant level
  abdominal fat: significantly decreased
